In patent EP2105446A2 (ZymoGenetics, Inc., dated 2009):

Columns and labels:
[1] = molecular target: factor present in the activated monkey spleen conditioned media (monkey); test: cell-based or functional assay
[2] = molecular target: factor present in the activated CD3+ selected human T-cell conditioned media (human); test: cell-based or functional assay

B1: zalpha11CEE soluble receptor (zalpha11 extracellular domain with C-terminal Glu-Glu tag) (receptor)
chain: not shown
[1]
  inhibition of BaF3/Zalpha11 cell growth (Alamar Blue), concentration giving complete inhibition: 10 µg/mL
  titration of soluble receptor, lowest concentration giving complete inhibition of BaF3/Zalpha11 growth: 20 ng/mL
[2]
  inhibition of BaF3/Zalpha11 cell growth (Alamar Blue), concentration giving complete inhibition: 10 µg/mL
  titration of soluble receptor, lowest concentration giving complete inhibition of BaF3/Zalpha11 growth: 20 ng/mL

B2: zalpha11CFLG soluble receptor (zalpha11 extracellular domain with C-terminal FLAG tag) (receptor)
chain: not shown
[1]
  inhibition of BaF3/Zalpha11 cell growth (Alamar Blue), concentration giving complete inhibition: 10 µg/mL
  titration of soluble receptor, lowest concentration giving complete inhibition of BaF3/Zalpha11 growth: 20 ng/mL
[2]
  inhibition of BaF3/Zalpha11 cell growth (Alamar Blue), concentration giving complete inhibition: 10 µg/mL
  titration of soluble receptor, lowest concentration giving complete inhibition of BaF3/Zalpha11 growth: 20 ng/mL
